The record followed here is patent US20250215104A1 (WALDEN BIOSCIENCES, published 2025).

To fix the notation:
B1: suPAR_DB02_D01 (scFv, V domains shown)
VH: QVQLVQSGAEVKKPGASVKVSCKASGYTFTDYYMHWVRQAPGQGLEWMGWIDHENGNTIYDQKFQGRVTMTRDTSTSTVYMELSSLRSEDTAVYYCARGYDVDWFVYWGQGTLVTVSS
VL: DIQMTQSPSSLSASVGDRVTITCSARSSVSYMYWYQQKPGKAPKLLIYRTSNLASGVPSRFSGSGSGTDFTLTISSLQPEDFATYYCQQYHSYPPTFGGGTKVEIK
notes: scFv clone from phage display
B2: suPAR_DB02_E06 (scFv, V domains shown)
VH: B1 VH with D31G, H53P
VL: B1 VL
notes: scFv clone from phage display
B3: suPAR_DB02_D03 (scFv, V domains shown)
VH: B1 VH with D31S, Y32H
VL: B1 VL
notes: scFv clone from phage display
B4: suPAR_DB02_C07 (scFv, V domains shown)
VH: B1 VH with Y32S, M34I, H53A, E54N, N57D, I59N, D61A, Q62E, K63R
VL: B1 VL
notes: scFv clone from phage display
B5: suPAR_DB02_D11 (scFv, V domains shown)
VH: B1 VH with Y27F, T28N, F29I, T30K, M34I, H53P
VL: B1 VL
notes: scFv clone from phage display
B6: suPAR_DB02_C10 (scFv, V domains shown)
VH: B1 VH with M34V, N55G, N57S
VL: B1 VL
notes: scFv clone from phage display
B7: suPAR_DB02_G09 (scFv, V domains shown)
VH: B1 VH with Y27F, F29I, T30K, H53P, E54S, N57A, I59N, Y60S, D61A, K63N
VL: B1 VL with S24R, R26S
notes: scFv clone from phage display
B8: suPAR_DB02_F07 (scFv, V domains shown)
VH: B1 VH with D31G, M34V, H53P, N55G
VL: B1 VL with S24R, S27Q, A54Q
notes: scFv clone from phage display
B9: suPAR_DB02_E02 (scFv, V domains shown)
VH: B1 VH
VL: B1 VL with N52S, A54Q
notes: scFv clone from phage display
B10: suPAR_DB02_D06 (scFv, V domains shown)
VH: B1 VH with Y27D, T30A, D31N, D52I, H53P, E54N, N55S, N57D, I59N, D61A
VL: B1 VL with N52S, A54Q
notes: scFv clone from phage display
B11: suPAR_DB02_D05 (scFv, V domains shown)
VH: B1 VH with D31S
VL: B1 VL
notes: scFv clone from phage display
B12: suPAR_DB02_F04 (scFv, V domains shown)
VH: B1 VH with F29L, D31S, M34V, H53P, E54K, N55S, N57D, I59K, D61A, Q62H
VL: B1 VL
notes: scFv clone from phage display
B13: suPAR_DB02_G05 (scFv, V domains shown)
VH: B1 VH with D31G, Y32H, H53P, N55G, D61A
VL: B1 VL with R26S
notes: scFv clone from phage display
B14: suPAR_DB02_D08 (scFv, V domains shown)
VH: B1 VH with D31N
VL: B1 VL with S24R, S27Q
notes: scFv clone from phage display
B15: suPAR_DB02_D04 (scFv, V domains shown)
VH: B1 VH with Y27F, F29I, T30K, H53P, E54D, N55S, N57G, I59N, D61A, Q62E
VL: B1 VL with S24R, S27Q
notes: scFv clone from phage display
B16: suPAR_DB02_G10 (scFv, V domains shown)
VH: B1 VH with D31N, H53P, N57S
VL: B1 VL with S24R, S27Q, A54E, S55T
notes: scFv clone from phage display
B17: suPAR_DB02_E11 (scFv, V domains shown)
VH: B1 VH with Y27G, T30S, D31N
VL: B1 VL with S24R, S27Q, N52S
notes: scFv clone from phage display
B18: suPAR_DB02_G11 (scFv, V domains shown)
VH: B1 VH with Y27D, D31G, N55G, D61A
VL: B1 VL
notes: scFv clone from phage display
B19: suPAR_DB02_C11 (scFv, V domains shown)
VH: B1 VH with T28N, T30K, M34I, N57S, D61A
VL: B1 VL with S27Q
notes: scFv clone from phage display
B20: suPAR_DB02_F09 (scFv, V domains shown)
VH: B1 VH with D31G, H53P, N55G, N57S, R98G
VL: B1 VL
notes: scFv clone from phage display
B21: suPAR_DB02_C09 (scFv, V domains shown)
VH: B1 VH with D31G, M48V, W50L, D52N, H53P, E54S, N55D, N57Y, I59T, D61A
VL: B1 VL
notes: scFv clone from phage display
B22: suPAR_DB02_F11 (scFv, V domains shown)
VH: B1 VH with D31S, Y32S
VL: B1 VL with S24R, V29I
notes: scFv clone from phage display
B23: suPAR_DB02_E09 (scFv, V domains shown)
VH: QVQLVQSGAEVKKPGASVKVSCKASGFNIKDYYIHWVRQAPGQGLEWMGWIDPNSGGTNYAQKFQGRVTMTRDTSTSTVYMELSSLRSEDTAVYYCARGYDVDWFVYWGQGTLVTVSS
VL: B1 VL
notes: scFv clone from phage display
B24: suPAR_DB02_F08 (scFv, V domains shown)
VH: B1 VH with D31G, M34I, H53P, D61A
VL: B1 VL with R26S, V29I
notes: scFv clone from phage display
B25: suPAR_DB02_D02 (scFv, V domains shown)
VH: B1 VH with Y27D, D31S, N55G, I59S, D61A
VL: B1 VL
notes: scFv clone from phage display
B26: suPAR_DB02_C12 (scFv, V domains shown)
VH: B1 VH with F29L, H53P, N55G, I59S
VL: B1 VL
notes: scFv clone from phage display
B27: suPAR_DB02_E04 (scFv, V domains shown)
VH: B1 VH with D31N, M34I, H35Q
VL: B1 VL
notes: scFv clone from phage display
B28: suPAR_DB02_C06 (scFv, V domains shown)
VH: B1 VH with Y27F, T28N, F29I
VL: B1 VL with R26S, S27Q
notes: scFv clone from phage display
B29: suPAR_DB02_E05 (scFv, V domains shown)
VH: B23 VH with I51V, N54S, G57A, N59D
VL: B1 VL
notes: scFv clone from phage display
B30: suPAR_DB02_H02 (scFv, V domains shown)
VH: B1 VH with D31G, M34L, H53P, N57S
VL: B1 VL
notes: scFv clone from phage display
B31: suPAR_DB02_D12 (scFv, V domains shown)
VH: B1 VH with T30S, D31N, N55G, N57S, D61A
VL: B1 VL with Y90S
notes: scFv clone from phage display
B32: suPAR_DB02_D10 (scFv, V domains shown)
VH: B1 VH with D31G, H53P, N55G
VL: B1 VL
notes: scFv clone from phage display
B33: suPAR_DB02_F06 (scFv, V domains shown)
VH: B23 VH with I29F, K30T, G57S, K63N, D101M
VL: B1 VL
notes: scFv clone from phage display
B34: suPAR_DB02_F12 (scFv, V domains shown)
VH: B1 VH with Y27D, T28M, D31G, M34L
VL: B1 VL with N52S
notes: scFv clone from phage display

Residue numbers refer to the chain shown, from its start.

In the first assay the target is T1, human soluble urokinase plasminogen activator receptor (suPAR) (human, UniProt Q03405 23-303, limits assumed).
T1 construct: Column head says only 'human'; also called human suPAR; hsuPAR
T1 sequence (Q03405 23-303 limits assumed): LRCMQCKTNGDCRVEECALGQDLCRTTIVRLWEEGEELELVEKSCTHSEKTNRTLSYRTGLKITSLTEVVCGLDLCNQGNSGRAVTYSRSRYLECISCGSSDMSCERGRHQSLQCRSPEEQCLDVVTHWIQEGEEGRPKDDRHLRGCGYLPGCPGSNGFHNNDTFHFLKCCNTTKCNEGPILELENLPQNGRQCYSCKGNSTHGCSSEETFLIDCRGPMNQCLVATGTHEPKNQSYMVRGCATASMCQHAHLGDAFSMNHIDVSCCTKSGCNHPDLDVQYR
Kind of assay: BLI (Octet) off-rate screen of scFv clones. (In general: BLI is a label-free optical method that tracks binding on a fibre tip over time.)
Take B1: the dissociation rate constant (koff) – broadly, the first-order rate constant of dissociation – was found to be 0.003 s⁻¹.

Turning to B2, the koff turned out to be 0.00239 s⁻¹.

Molecule B3 registered a koff of 0.0055 s⁻¹.

The molecule B4 registered a koff of 0.0026 s⁻¹.

In turn, B5 came in with a koff of 0.00415 s⁻¹.

B6 came in with a koff of 0.00257 s⁻¹.

Turning to B7, the dissociation rate constant (koff) was 0.00733 s⁻¹.

The molecule B8 showed an off-rate (koff) of 0.002 s⁻¹.

Regarding B9, the dissociation rate constant (koff) was determined as 0.00438 s⁻¹.

For the molecule B10, the koff worked out at 0.00416 s⁻¹.

As for B11, the koff was 0.00358 s⁻¹.

On to B12, for which the koff was 0.00384 s⁻¹.

For the molecule B13, the koff is 0.00242 s⁻¹.

B14: the off-rate constant (koff) is 0.00202 s⁻¹.

The molecule B15 registered an off-rate (koff) of 0.0041 s⁻¹.

B16 displayed an off-rate constant (koff) of 0.00562 s⁻¹.

In turn, B17 yielded a koff of 0.00423 s⁻¹.

The molecule B18 showed a koff of 0.00561 s⁻¹.

On to B19, for which the koff is 0.0049 s⁻¹.

B20 registered a koff of 0.00166 s⁻¹.

Turning to B21, the koff stood at 0.00387 s⁻¹.

As to B22, the off-rate (koff) is 0.00198 s⁻¹.

With B23, the off-rate (koff) was 0.00473 s⁻¹.

B24 showed a koff of 0.0021 s⁻¹.

Take B25: the koff is 0.00436 s⁻¹.

On to B26, for which the off-rate (koff) amounted to 0.00319 s⁻¹.

As for B27, the dissociation rate constant (koff) came out at 0.00311 s⁻¹.

The molecule B28 had an off-rate (koff) of 0.00475 s⁻¹.

Molecule B29 came in with a dissociation rate constant (koff) of 0.00239 s⁻¹.

The molecule B30 yielded an off-rate (koff) of 0.00579 s⁻¹.

In turn, B31 returned a koff of 0.00611 s⁻¹.

B32 returned an off-rate constant (koff) of 0.00178 s⁻¹.

Molecule B33 registered an off-rate constant (koff) of 0.00495 s⁻¹.

In turn, B34 gave a koff of 0.00494 s⁻¹.

In another assay the target is T2, cynomolgus soluble urokinase plasminogen activator receptor (suPAR) (cynomolgus, UniProt Q9GK78 23-303, limits assumed).
T2 construct: Column head says only 'cynomologus'; also called cynomolgus suPAR; cynomolgus uPAR
T2 sequence (Q9GK78 23-303 limits assumed): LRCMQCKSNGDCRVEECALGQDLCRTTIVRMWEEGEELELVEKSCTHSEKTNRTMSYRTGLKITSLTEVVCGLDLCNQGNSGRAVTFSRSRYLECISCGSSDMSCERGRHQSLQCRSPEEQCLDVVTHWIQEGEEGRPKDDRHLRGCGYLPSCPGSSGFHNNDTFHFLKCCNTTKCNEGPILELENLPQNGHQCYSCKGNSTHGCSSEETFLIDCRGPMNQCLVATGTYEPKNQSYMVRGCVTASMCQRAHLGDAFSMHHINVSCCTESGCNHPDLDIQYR
In words: BLI (Octet) off-rate screen of scFv clones.
In turn, B1 displayed a koff of 4.7e-07 s⁻¹.

Consider B2, for which the koff came to 0.000295 s⁻¹.

B3 yielded a koff of 0.000188 s⁻¹.

Molecule B5 came in with a koff of 0.000265 s⁻¹.

In the case of B6, the koff was found to be 0.000198 s⁻¹.

As for B7, the koff came out at 0.00025 s⁻¹.

In the case of B8, the koff came to 0.000384 s⁻¹.

B9: the koff turned out to be 0.000189 s⁻¹.

In turn, B10 registered an off-rate constant (koff) of 0.00051 s⁻¹.

B11 yielded a koff of 0.000305 s⁻¹.

B12 displayed an off-rate (koff) of 0.000453 s⁻¹.

As for B13, the koff is 0.000521 s⁻¹.

As for B14, the koff stood at 0.000345 s⁻¹.

As to B15, the koff stood at 0.000281 s⁻¹.

The molecule B16 showed a dissociation rate constant (koff) of 0.00043 s⁻¹.

Turning to B17, the off-rate constant (koff) was found to be 0.000376 s⁻¹.

For B18, the koff was determined as 0.00013 s⁻¹.

In turn, B19 displayed an off-rate constant (koff) of 0.0004 s⁻¹.

Take B20: the koff was determined as 0.000624 s⁻¹.

In turn, B21 showed an off-rate constant (koff) of 0.000335 s⁻¹.

Turning to B22, the koff came to 0.000613 s⁻¹.

Turning to B23, the dissociation rate constant (koff) came out at 0.00021 s⁻¹.

Regarding B24, the off-rate (koff) is 2.47e-05 s⁻¹.

In the case of B25, the off-rate constant (koff) amounted to 2.49e-05 s⁻¹.

In turn, B26 gave a dissociation rate constant (koff) of 0.000582 s⁻¹.

Consider B27, for which the dissociation rate constant (koff) amounted to 0.000217 s⁻¹.

In turn, B28 came in with a koff of 0.000141 s⁻¹.

B29 displayed an off-rate (koff) of 0.00146 s⁻¹.

In turn, B30 had a koff of 0.000498 s⁻¹.

Turning to B31, the off-rate constant (koff) was 0.0038 s⁻¹.

Regarding B32, the koff is 0.000381 s⁻¹.

In the case of B33, the koff stood at 0.000174 s⁻¹.

Molecule B34 returned a koff of 9.82e-05 s⁻¹.
